Earlier results as cited in patent US20090048308A1, “VLA-4 Antagonists” (priority 2005, published 2009).

Target: T1, VLA-4 (Homo sapiens, UniProt P13612)
T1 construct: host or cells: VLA-4-bearing blood cells of trial subjects (inferred)
Details: early clinical trials

receptor occupancy: > 80%
Substance: natalizumab: humanized monoclonal antibody against α4 (Tysabri®, Elan/Biogen)
